Data as given in patent publication US11453702B2, “Bicyclic peptide ligands specific for Nectin-4” (priority 2018, dated 2022).
*1 amine or outer side, *2 acyl side, *3 side chain or, on linkers, in order; H or OH if unused. Where a SMILES comes first, the peptide text is derived from it. Bridges are numbered along the chain shown (N, C = ends). Roman numbers before positions name the chains, in order. [ ]: non-standard residue; d: D form. The star is where a group is joined. ξ: configuration not given here. TATA = O=C(CC[*:1])N1CN(C(=O)CC[*:2])CN(C(=O)CC[*:3])C1; Dolaproine = CO[C@@H]([C@@H]1CCCN1)[C@@H](C)C(=O)O; X1 = CC[C@H](C)C(C(CC(=O)[*:2])OC)N(C)[*:1]; Dil = CC[C@H](C)[C@H](NC)[C@@H](CC(=O)O)OC; 1Nal = N[C@@H](Cc1cccc2ccccc12)C(=O)O; X3 = O=C(CCCC(=O)[*:2])NCCC(=O)[*:1]; PABC = O=C(OCc1ccc(N[*:1])cc1)[*:2]; X4 = C[C@@H](N*)[C@@H](O)c1ccccc1; Hyp = O=C(O)[C@@H]1C[C@@H](O)CN1; hArg = N=C(N)NCCCC[C@H](N)C(=O)O; Cit = NC(=O)NCCC[C@H](N)C(=O)O; X2 = CC(N*)[C@@H](O)c1ccccc1; NMeV = CN[C@H](C(=O)O)C(C)C; ξNMeV = CNC(C(=O)O)C(C)C; ξV = CC(C)C(N)C(=O)O; Sar = CNCC(=O)O

What was measured:
NCI-H292 xenograft = assay: In vivo efficacy in NCI-H292 xenograft (NSCLC model) in BALB/c nude mice (Examples 1, 5, 9.5); conditions: Ex 1; all treatment animals during the dosing schedule
From the text: The animals will be randomized and treatment will be started when the average tumor volume reaches approximately 158-406 mm^3.
The objective of the research is to evaluate the in vivo anti-tumor efficacy of test articles in treatment of NCI-H292 xenograft in Balb/c nude mice.

[1] = tested on: CTG-1771, CTG-1171, CTG-1106 and CTG-0896 PDX models; conditions: all models
From the text: To evaluate the antitumor activity of Bicycle Agent in Low Passage Champions TumorGraft Models of Human Breast, Esophageal, and Bladder Cancer in Immunocompromised mice.
Pre-study Animals: When sufficient stock animals reach 1.0-1.5 cm^3, tumors will be harvested for re-implantation into pre-study animals. Pre-study animals will be implanted unilaterally on the left flank with tumor fragments harvested from stock animals. Each animal is implanted from a specific passage lot and documented.
Study Animals: Pre-study tumor volumes are recorded for each experiment beginning seven to ten days after implantation. When tumors reach an average tumor volume of 150-300 mm^3, animals will be matched by tumor volume into treatment or control groups to be used for dosing and dosing initiated on Day 0.

HT-1376 xenograft = conditions: 5 mg/kg qw, during the treatment schedule
Protocol: All data were analyzed using GraphPad Prism 5.0. P<0.05 was considered to be statistically significant.
The objective of the research is to evaluate the in vivo anti-tumor efficacy of test articles in treatment of HT-1376 xenograft in CB17-SCID mice.
The HT-1376 tumor cells were maintained in vitro as a monolayer culture in EMEM medium supplemented with 10% heat inactivated fetal bovine serum at 37° C. in an atmosphere of 5% CO2 in air. The tumor cells were routinely subcultured twice weekly by trypsin-EDTA treatment. The cells growing in an exponential growth phase were harvested and counted for tumor inoculation.
Each mouse was inoculated subcutaneously at the right flank with HT-1376 tumor cells (5×10^6) in 0.2 ml of PBS with matrigel (1:1) for tumor development. Animals were randomized when the average tumor volume reached 153-164 mm^3. The test article administration and the animal numbers in each group were shown in the experimental design table.
The HT-1376 tumor cells will be maintained in EMEM medium supplemented with 10% heat inactivated fetal bovine serum at 37° C. in an atmosphere of 5% CO2 in air. The tumor cells will be routinely subcultured twice weekly. The cells growing in an exponential growth phase will be harvested and counted for tumor inoculation. […]

NCI-H526 xenograft = conditions: 5 mg/kg biw (so in the source)
Protocol: (§1) The major endpoint was to see if the tumor growth could be delayed or mice could be cured. Tumor volume was measured three times weekly in two dimensions using a caliper, and the volume was expressed in mm^3 using the formula: V=0.5 a×b^2 where a and b are the long and short diameters of the tumor, respectively. The tumor size was then used for calculations of T/C value. The T/C value (in percent) is an indication of antitumor effectiveness; T and C are the mean volumes of the treated and control groups, respectively, on a given day.
(§2) TGI was calculated for each group using the formula: TGI (%)=[1−(Ti−T0)/(Vi−V0)]×100; Ti is the average tumor volume of a treatment group on a given day, T0 is the average tumor volume of the treatment group on the day of treatment start, Vi is the average tumor volume of the vehicle control group on the same day with Ti, and V0 is the average tumor volume of the vehicle group on the day of treatment start.
(§3) A one-way ANOVA was performed to compare tumor volume among groups, and when a significant F-statistics (a ratio of treatment variance to the error variance) was obtained, comparisons between groups were carried out with Games-Howell test. All data were analyzed using GraphPad Prism 5.0. P<0.05 was considered to be statistically significant. […]

[2] = BCY8245 (BT8009) injected at 3 mg/kg; MDA-MB-468 xenograft animals
Protocol: At various timepoints, animals were euthanized and plasma and tumour taken and snap frozen. Samples were analysed for MMAE.

A549 xenograft = assay: In vivo efficacy in A549 xenograft in Balb/c nude mice (Example 9.1); conditions: mouse
Protocol: as §1, §2, §3

MDA-MB-468 cell line = assay: HCS assay, Nectin-4 BDC binding study (Example 11); assay type: cell-based
Protocol: HCS assay was used in Nectin-4 BDC binding study. Cells were incubated with test agent and then washed. Detection was by a fluorescent antibody to MMAE.

Structure (SMILES): CC[C@H](C)C(C(CC(=O)N1CCC[C@H]1[C@H](OC)[C@@H](C)C(=O)NC(C)[C@@H](O)c1ccccc1)OC)N(C)C(=O)[C@@H](NC(=O)C(C(C)C)N(C)C(=O)OCc1ccc(NC(=O)[C@H](CCCNC(N)=O)NC(=O)C(NC(=O)CCCC(=O)NCCC(=O)N(C)CC(=O)N(C)CC(=O)N(C)CC(=O)N(C)CC(=O)N(C)CC(=O)N(C)CC(=O)N(C)CC(=O)N(C)CC(=O)N(C)CC(=O)N(C)CC(=O)N[C@H]2CSCCC(=O)N3CN4CN(C3)C(=O)CCSC[C@H](NC(=O)[C@@H](CC(=O)O)NC(=O)[C@H](Cc3cccc5ccccc35)NC(=O)[C@@H]3CCCN3C2=O)C(=O)N[C@@H](CCSC)C(=O)N[C@@H](CCCCNC(=N)N)C(=O)N[C@@H](CC(=O)O)C(=O)N[C@@H](Cc2c[nH]c3ccccc23)C(=O)N[C@@H](CO)C(=O)N[C@@H]([C@@H](C)O)C(=O)N2CCC[C@H]2C(=O)N2C[C@H](O)C[C@H]2C(=O)N[C@@H](Cc2c[nH]c3ccccc23)C(=O)N[C@H](C(N)=O)CSCCC4=O)C(C)C)cc1)C(C)C (stereo partly drawn) [BCY8245, MMAE-PABC-Cit-Val-Glutaryl-BCY8234] (I: [Sar][Sar][Sar][Sar][Sar][Sar][Sar][Sar][Sar][Sar]CP[1Nal][dD]CM[hArg]DWSTP[Hyp]WC-NH2 / II: [ξV][Cit][PABC][ξNMeV]V[X1][Dolaproine]-X2; linker I:11-I:15-I:25 via TATA; linker I:N-II:N via X3)
- bodyweight (in words) (NCI-H292 xenograft): continued bodyweight loss
- tolerability compared with Docetaxel (in words) [1]: better tolerated than Docetaxel
- animal bodyweight loss (HT-1376 xenograft): over 10%
- animal bodyweight loss (NCI-H526 xenograft): over 10%
- retention of MMAE in tumour versus plasma (in words) [2]: MMAE was retained in the tumour longer than in plasma
- bodyweight (in words) (A549 xenograft): maintained the bodyweight well

Structure (SMILES): CC[C@H](C)[C@@H]([C@@H](CC(=O)N1CCC[C@H]1[C@H](OC)[C@@H](C)C(=O)N[C@H](C)[C@@H](O)c1ccccc1)OC)N(C)C(=O)[C@@H](NC(=O)[C@@H](NC)C(C)C)C(C)C [MMAE, Monomethyl auristatin E] (H-[NMeV]V[Dil][Dolaproine]-X4)
- binding affinity (Kd) on MDA-MB-468 cell line (in words) (MDA-MB-468 cell line): almost no detectable binding affinity
- retention on the cells (in words) (MDA-MB-468 cell line; MDA-MB-468 cells, detection by fluorescent antibody to MMAE): minimal retention
